Substitutions are numbered along the chain they refer to.

Results on two molecules are retold here after paper PMC11719849, “Allosteric modulation of the Lon protease via ssDNA binding and local charge changes”.

One series deals with T1, Lon4E (Caulobacter crescentus, UniProt P0CAW0 1-799, K301E;K303E;K305E;K306E).
T1 sequence: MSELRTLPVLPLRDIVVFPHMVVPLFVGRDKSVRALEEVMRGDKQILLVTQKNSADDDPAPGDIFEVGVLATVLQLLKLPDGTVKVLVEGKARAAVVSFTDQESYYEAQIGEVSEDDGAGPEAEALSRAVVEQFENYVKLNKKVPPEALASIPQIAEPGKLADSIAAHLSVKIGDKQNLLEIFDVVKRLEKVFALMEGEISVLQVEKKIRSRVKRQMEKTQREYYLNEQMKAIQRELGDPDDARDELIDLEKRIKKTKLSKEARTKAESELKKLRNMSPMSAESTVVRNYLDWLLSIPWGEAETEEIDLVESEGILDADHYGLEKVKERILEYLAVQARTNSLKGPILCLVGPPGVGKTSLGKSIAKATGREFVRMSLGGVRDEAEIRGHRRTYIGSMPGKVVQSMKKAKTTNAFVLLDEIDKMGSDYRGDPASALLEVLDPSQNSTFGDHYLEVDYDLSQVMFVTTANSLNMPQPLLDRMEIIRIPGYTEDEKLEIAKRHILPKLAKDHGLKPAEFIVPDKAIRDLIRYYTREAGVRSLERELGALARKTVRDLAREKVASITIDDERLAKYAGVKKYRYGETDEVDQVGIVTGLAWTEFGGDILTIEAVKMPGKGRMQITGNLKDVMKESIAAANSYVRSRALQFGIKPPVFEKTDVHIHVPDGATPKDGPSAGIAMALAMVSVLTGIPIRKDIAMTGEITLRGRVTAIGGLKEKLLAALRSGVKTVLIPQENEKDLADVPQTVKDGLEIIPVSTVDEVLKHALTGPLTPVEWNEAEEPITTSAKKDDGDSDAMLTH
The series can be described thus: fluorescence polarization; 0.1 uM Lon4E, 25 nM FAM-ssDNA; FP: 25 mM HEPES pH 7.5, 10 mM MgCl2, 100 mM KCl, 0.05% Tween-20, 30 C, 0.1 uM Lon (hexamer), 25 nM DNA; mass photometry in TK buffer, 200 nM Lon. The note with it: protein: recombinant; chain copies: 6; label: FAM (printed at 5' side). (In general: Polarisation of emitted light reports the rotation of a fluorescent probe.)

The next series concerns the target T2, Lon4A (Caulobacter crescentus, UniProt P0CAW0 1-799, K301A;K303A;K305A;K306A).
T2 sequence: T1 sequence with E301A, E303A, E305A, E306A
The series can be described thus: fluorescence polarization; 0.1 uM Lon4A, 25 nM FAM-ssDNA; FP: 25 mM HEPES pH 7.5, 10 mM MgCl2, 100 mM KCl, 0.05% Tween-20, 30 C, 0.1 uM Lon (hexamer), 25 nM DNA; mass photometry in TK buffer, 200 nM Lon. Particulars: protein: recombinant; chain copies: 6; label: FAM (printed at 5' side).

The next series has as its target T3, Lon (wild type) (Caulobacter crescentus, UniProt P0CAW0 1-799).
T3 sequence: T1 sequence with E301K, E303K, E305K, E306K
The series can be described thus: mass photometry; 200 nM Lon monomer; shift to HMW, median 592 kDa vs 515 kDa, consistent with one ssDNA per protomer; FP: 25 mM HEPES pH 7.5, 10 mM MgCl2, 100 mM KCl, 0.05% Tween-20, 30 C, 0.1 uM Lon (hexamer), 25 nM DNA; mass photometry in TK buffer, 200 nM Lon. The note with it: protein: recombinant; chain copies: 6.

As for AACGGATGATCCACAGGAGAGTCTGGCGCAGGGCGAGAG (ssDNA) [FAM-ssDNA (G1Box top strand)], the binding result with Lon4E and with Lon4A was “no binding” throughout.
On to TCGATTCTCGAGTTAGTCGTCTTCTGGTGCCGGAAA (ssDNA) [OPC698-Stim], for which the binding result with Lon (wild type) is “binds”.
